Reference: publication PMC9482650, “Quantitative fragmentomics allow affinity mapping of interactomes” (Nature Communications, 2022)

Key:
Experiment in all cases: holdup assay
Set-up in all cases: key: below the threshold = too weak to quantify, mostly under pKd 3.1 to 4
Conditions in all cases: plain residues with an end cap or a label only (N-terminal biotin on a linker: ado-ado)
ARHGAP21, Q5T5U3 = target: T1, ARHGAP21, Q5T5U3
T1 sequence (Q5T5U3 45-169, limits assumed, looked up): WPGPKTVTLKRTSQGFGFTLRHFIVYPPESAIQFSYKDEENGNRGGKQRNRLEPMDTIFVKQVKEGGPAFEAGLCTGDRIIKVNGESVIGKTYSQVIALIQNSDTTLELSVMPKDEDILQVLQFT

LRRC7, Q96NW7 = target: T2, LRRC7, Q96NW7
T2 sequence (Q96NW7 1440-1537, limits assumed, looked up): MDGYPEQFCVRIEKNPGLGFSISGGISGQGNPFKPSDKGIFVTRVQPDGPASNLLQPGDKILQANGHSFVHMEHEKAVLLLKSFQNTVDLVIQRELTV

HTRA2, O43464 = target: HTRA2, O43464
HTRA2, O43464, sequence (O43464 355-458): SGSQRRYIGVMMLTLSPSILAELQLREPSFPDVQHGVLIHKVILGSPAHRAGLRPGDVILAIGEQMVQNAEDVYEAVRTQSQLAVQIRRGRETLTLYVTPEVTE

DLG2_2, Q15700 = target: DLG2_2, Q15700
DLG2_2, Q15700, sequence (Q15700 189-283): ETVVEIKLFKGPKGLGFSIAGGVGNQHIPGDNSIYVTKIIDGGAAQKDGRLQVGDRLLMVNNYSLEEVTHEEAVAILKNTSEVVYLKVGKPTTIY

GRIP2_7, Q9C0E4 = target: GRIP2_7, Q9C0E4
GRIP2_7, Q9C0E4, sequence (Q9C0E4 934-1023): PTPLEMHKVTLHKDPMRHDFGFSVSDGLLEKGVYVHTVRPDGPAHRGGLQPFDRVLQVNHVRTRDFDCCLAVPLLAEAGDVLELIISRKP

MAGI2_3, Q86UL8 = target: MAGI2_3, Q86UL8
MAGI2_3, Q86UL8, sequence (Q86UL8 600-682): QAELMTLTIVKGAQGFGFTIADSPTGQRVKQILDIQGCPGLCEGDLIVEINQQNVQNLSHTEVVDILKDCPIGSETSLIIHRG

DLG1_3, Q12959 = target: DLG1_3, Q12959
DLG1_3, Q12959, sequence (Q12959 457-571): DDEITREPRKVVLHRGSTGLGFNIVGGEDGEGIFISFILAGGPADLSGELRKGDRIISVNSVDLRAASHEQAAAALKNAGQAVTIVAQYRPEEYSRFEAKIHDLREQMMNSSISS

APBA2_1, Q99767 = target: T3, APBA2_1, Q99767
T3 sequence (Q99767 563-664, limits assumed, looked up): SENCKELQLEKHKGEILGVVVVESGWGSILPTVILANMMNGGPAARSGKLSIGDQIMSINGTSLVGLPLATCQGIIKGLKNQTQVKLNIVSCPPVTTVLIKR

IL16_4, Q14005 = target: IL16_4, Q14005
IL16_4, Q14005, sequence (Q14005 1229-1329): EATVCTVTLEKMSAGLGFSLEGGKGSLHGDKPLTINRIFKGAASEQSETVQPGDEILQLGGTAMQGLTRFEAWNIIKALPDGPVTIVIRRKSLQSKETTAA

NHERF3_3, Q5T2W1 = target: T4, NHERF3_3, Q5T2W1
T4 sequence (Q5T2W1 238-333, limits assumed, looked up): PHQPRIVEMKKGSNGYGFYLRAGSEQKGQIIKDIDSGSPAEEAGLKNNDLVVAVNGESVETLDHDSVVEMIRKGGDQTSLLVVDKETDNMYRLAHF

MAGI2_2, Q86UL8 = target: MAGI2_2, Q86UL8
MAGI2_2, Q86UL8, sequence (Q86UL8 410-522): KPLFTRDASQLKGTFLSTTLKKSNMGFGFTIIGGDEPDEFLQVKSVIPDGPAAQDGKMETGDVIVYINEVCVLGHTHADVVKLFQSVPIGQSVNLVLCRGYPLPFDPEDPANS

NHERF3_4, Q5T2W1 = target: T5, NHERF3_4, Q5T2W1
T5 sequence (Q5T2W1 373-468, limits assumed, looked up): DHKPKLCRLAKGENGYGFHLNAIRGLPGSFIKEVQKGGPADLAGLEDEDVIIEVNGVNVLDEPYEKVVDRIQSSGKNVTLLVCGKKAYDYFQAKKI

PTPN13_1, Q12923 = target: T6, PTPN13_1, Q12923
T6 sequence (Q12923 1088-1188, limits assumed, looked up): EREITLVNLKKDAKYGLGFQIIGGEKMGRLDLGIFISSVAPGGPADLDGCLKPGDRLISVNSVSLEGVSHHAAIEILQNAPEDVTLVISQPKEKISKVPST

Inadl_5, Q8NI35 = target: Inadl_5, Q8NI35
Inadl_5, Q8NI35, sequence (Q8NI35 673-780): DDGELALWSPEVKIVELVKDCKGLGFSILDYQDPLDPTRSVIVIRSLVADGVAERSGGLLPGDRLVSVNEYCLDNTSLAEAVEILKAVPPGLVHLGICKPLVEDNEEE

DFNB31_2, Q9P202 = target: T7, DFNB31_2, Q9P202
T7 sequence (Q9P202 274-371, limits assumed, looked up): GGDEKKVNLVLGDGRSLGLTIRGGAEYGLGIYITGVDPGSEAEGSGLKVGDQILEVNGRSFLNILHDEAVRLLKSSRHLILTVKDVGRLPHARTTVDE

DLG1_2, Q12959 = target: DLG1_2, Q12959
DLG1_2, Q12959, sequence (Q12959 314-412): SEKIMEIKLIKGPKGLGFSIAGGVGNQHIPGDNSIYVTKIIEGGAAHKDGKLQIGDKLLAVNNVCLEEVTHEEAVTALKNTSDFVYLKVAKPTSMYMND

GIPC2, Q8TF65 = target: GIPC2, Q8TF65
GIPC2, Q8TF65, sequence (Q8TF65 112-203): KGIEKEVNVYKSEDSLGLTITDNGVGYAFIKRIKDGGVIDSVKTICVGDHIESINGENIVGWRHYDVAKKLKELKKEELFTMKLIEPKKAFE

APBA2_2, Q99767 = target: T8, APBA2_2, Q99767
T8 sequence (Q99767 654-744, limits assumed, looked up): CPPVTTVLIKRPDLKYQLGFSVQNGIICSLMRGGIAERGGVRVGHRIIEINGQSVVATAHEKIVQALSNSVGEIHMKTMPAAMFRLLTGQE

GRID2IP_1, A4D2P6 = target: GRID2IP_1, A4D2P6
GRID2IP_1, A4D2P6, sequence (A4D2P6 1-87): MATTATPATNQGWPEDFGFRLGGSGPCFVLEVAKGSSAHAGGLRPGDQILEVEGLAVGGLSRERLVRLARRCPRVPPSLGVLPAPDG

DLG3_1, Q92796 = target: T9, DLG3_1, Q92796
T9 sequence (Q92796 125-227, limits assumed, looked up): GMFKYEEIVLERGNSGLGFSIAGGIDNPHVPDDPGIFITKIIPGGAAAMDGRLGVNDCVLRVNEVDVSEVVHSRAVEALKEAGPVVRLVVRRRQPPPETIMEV

Inadl_2, Q8NI35 = target: Inadl_2, Q8NI35
Inadl_2, Q8NI35, sequence (Q8NI35 238-335): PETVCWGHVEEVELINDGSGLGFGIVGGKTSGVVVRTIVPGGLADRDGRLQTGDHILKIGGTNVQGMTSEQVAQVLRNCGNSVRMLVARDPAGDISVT

FRMPD2_1, Q68DX3 = target: FRMPD2_1, Q68DX3
FRMPD2_1, Q68DX3, sequence (Q68DX3 770-861): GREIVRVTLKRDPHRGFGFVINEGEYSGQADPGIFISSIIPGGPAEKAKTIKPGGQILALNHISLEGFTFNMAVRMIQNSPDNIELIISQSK

GRIP1_7, Q9Y3R0 = target: T10, GRIP1_7, Q9Y3R0
T10 sequence (Q9Y3R0 999-1096, limits assumed, looked up): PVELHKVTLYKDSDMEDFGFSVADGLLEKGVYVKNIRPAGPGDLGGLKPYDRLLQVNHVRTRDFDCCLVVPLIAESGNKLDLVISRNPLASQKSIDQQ

SIPA1L2, Q9P2F8 = target: T11, SIPA1L2, Q9P2F8
T11 sequence (Q9P2F8 945-1036, limits assumed, looked up): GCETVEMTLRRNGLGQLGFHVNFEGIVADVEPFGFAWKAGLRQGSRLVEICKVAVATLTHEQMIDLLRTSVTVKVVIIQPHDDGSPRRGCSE

FRMPD4, Q14CM0 = target: FRMPD4, Q14CM0
FRMPD4, Q14CM0, sequence (Q14CM0 67-160): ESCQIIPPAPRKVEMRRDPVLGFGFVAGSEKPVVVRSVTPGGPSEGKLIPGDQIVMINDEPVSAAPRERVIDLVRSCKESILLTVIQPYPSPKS

NHERF3_1, Q5T2W1 = target: T12, NHERF3_1, Q5T2W1
T12 sequence (Q5T2W1 4-100, limits assumed, looked up): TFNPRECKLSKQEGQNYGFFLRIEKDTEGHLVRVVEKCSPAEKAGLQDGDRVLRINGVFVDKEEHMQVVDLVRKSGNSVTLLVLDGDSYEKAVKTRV

For FHSIKQSTAV [CRHR1, P34998], the pKd (ARHGAP21, Q5T5U3) was “below the threshold”, the pKd (LRRC7, Q96NW7) was 3.49 and the pKd (HTRA2, O43464) was “below the threshold”. For the same binder, the pKd (DLG2_2, Q15700) was 4.66, the pKd (GRIP2_7, Q9C0E4) was “below the threshold” and the pKd (MAGI2_3, Q86UL8) was 3.61. The pKd (DLG1_3, Q12959) was 3.96, the pKd (APBA2_1, Q99767) was “below the threshold” and the pKd (IL16_4, Q14005) was “below the threshold”. The pKd (NHERF3_3, Q5T2W1) was “below the threshold”, the pKd (MAGI2_2, Q86UL8) was 5.03 and the pKd (NHERF3_4, Q5T2W1) was 4.27. The pKd (PTPN13_1, Q12923) was “below the threshold”, the pKd (Inadl_5, Q8NI35) was “below the threshold” and the pKd (DFNB31_2, Q9P202) was “below the threshold”. The pKd (DLG1_2, Q12959) was 4.98, the pKd (GIPC2, Q8TF65) was “below the threshold” and the pKd (APBA2_2, Q99767) was “below the threshold”. The pKd (GRID2IP_1, A4D2P6) was “below the threshold”, the pKd (DLG3_1, Q92796) was 4.04 and the pKd (Inadl_2, Q8NI35) was “below the threshold”. The pKd (FRMPD2_1, Q68DX3) was 3.93, the pKd (GRIP1_7, Q9Y3R0) was “below the threshold” and the pKd (SIPA1L2, Q9P2F8) was “below the threshold”. For the same binder, the pKd (FRMPD4, Q14CM0) was “below the threshold” and the pKd (NHERF3_1, Q5T2W1) was 5.52.
